The results in this text go back to paper PMC3462190, “A Peptidic Unconjugated GRP78/BiP Ligand Modulates the Unfolded Protein Response and Induces Prostate Cancer Cell Death” (PLoS ONE, 2012).

The test system of the experiment is 22Rv.1 xenograft tumor. Briefly: 22Rv.1 tumor xenograft study. To be noted: for tumor growth inhibition in vivo: xenografts of single 22Rv.1 clones stably expressing the peptide. It counts as in vivo, athymic nude mice. The procedure: All animal experiments were performed according to European and German statutory regulations. For generation of xenograft models 5×10^6 LNCaP cells were resuspended in a solution of 50% Matrigel® (BD Bioscience, Heidelberg, Germany) in PBS or 5×10^6 22Rv.1 cells in 100 µl of PBS were subcutaneously injected into both flanks of 6–8 week-old athymic nude mice. Tumor size was measured with a caliper every week. Tumors derived from the injection of stable clones overexpressing the Bag-1 peptide were analyzed over a period of 9 weeks while tumors from cells transfected with the empty expression vector or expressing the N-terminal, the C-terminal and the ΔN-peptide were analyzed over 5 weeks. Tumor size was assessed measuring three perpendicular diameters according to the formula: V = (1/6) [π] (d1d2d3), where π is a mathematic constant and d1, d2 and d3 represent the three spatial dimensions (width, depth and height). Mice were euthanized by cervical dislocation and the tumors removed for further analysis.
Figure 4 The Bag-1 peptide inhibits prostate cancer cell growth in vivo. A. Stable clones of 22Rv.1 cells show reduced cell viability in vitro. Stable clones were seeded in a 96-well plate and the cell number in each well was estimated by measuring the ratio between the wavelength of excitation and emission 560/590 nm using the CellTiter-Blue™ proliferation assay. The bar charts represent the mean of at least four independent experiments ±SD (*p<0.05). B. Determination of the level of the Bag-1 expressed in the 22Rv.1 clones. Cellular extracts of 22v.1 stable clones were subjected to Western blot analysis. An anti-HA antibody was used to detect the peptide and an anti-β-actin antibody for equal loading control. C-D. The Bag-1 peptide reduces 22Rv.1 prostate tumor cell growth in vivo. Six-week old athymic nude mice were injected subcutaneously in both flanks with 5×10^6 cells of each stable clone. Tumor size was measured once per week using a caliper and expressed as tumor volume in mm^3. Shown are (C) the tumor volumes of clones transfected with empty expression vector and (D) clones expressing the Bag-1 peptide. Each point represents the mean volume and standard deviation of at least 5 to 10 tumors. E. Xenografts of stable clones expressing the Bag-1 peptide show increased apoptosis. Five-micron sections of formalin-fixed, paraffin-embedded tumor tissues were subjected to immunohistochemistry. Nuclei are stained blue-purple with hematoxylin while apoptotic cells detected with the TUNEL assay are stained brown. Representative sections of xenografts obtained from each 22Rv.1 stable clone were acquired with an Axioscop microscope (Zeiss). V: stands for empty vector expressing clone and P: peptide expressing clone.
Figure 5 An N-terminal unfolded fragment of the Bag-1 peptide is sufficient to reduce tumor cell growth. A. Schematic diagram of the Bag-1 peptide and its deletion mutants. The ubiquitin-like domain is represented in blue and the BAG domain in red. The numbers refer to the amino acid positions of the different domains. The amino acid residues are numbered following the numbering for Bag-1L. B. Prediction of the secondary structure of the Bag-1 peptide, showing an N-terminal β-hairpin from the ubiquitin-like domain (blue) and a C-terminal α-helix from the BAG domain (red). C. Normalized circular dichroism spectra of the Bag-1 peptides. 30 µM of the Bag-1 peptide were measured in 20 mM KHPO4 buffer, pH 6.8 (black line). Its α-helical content was estimated to be approximately 25% by deconvolution of the spectra (red line). 12 µM of the N-term peptide (green line) and 11 µM of C-term (blue line) were measured under the same conditions. D. ^1H^15N-HSQC NMR spectrum of ^15N-labeled Bag-1 peptide (202–269) in 20 mm KHPO4 buffer, pH 6.8, at 23°C. […] The Hδ and Hε side chain signals of asparagine and glutamine are connected by thin lines. […]

“Also recorded” adds a separate entry of the source. Where no end group is shown, it is not given here.

Regarding “N-terminal peptide: N-terminal 40 residues of the Bag-1 peptide (Bag-1L 202–241) (TPLSALGIQDGCRVMLIGKKNSPQEEVELKKLKHLEKSVE; not fully specified)”, the “tumor growth inhibition in vivo” value was “reduces tumor growth in vivo; also recorded: growth inhibitory action of the peptides was also confirmed in xenograft models”.
As for “ΔUbi peptide: Bag-1 peptide lacking the ubiquitin-like domain portion (Bag-1L 220–269) (KKNSPQEEVELKKLKHLEKSVEKIADQLEELNKELTGIQQGFLPKDLQAE; not fully specified)”, the “tumor growth inhibition in vivo” value was “This effect was not seen”.
Take “C-terminal peptide: 28 C-terminal fragment of the Bag-1 peptide (Bag-1L 241–269) (EKIADQLEELNKELTGIQQGFLPKDLQAE; not fully specified)”: the “tumor growth inhibition in vivo” value is recorded as “This effect was not seen”.

B1: Bag-1 peptide: internal sequence of 68 amino acids of Bag-1 (Bag1-L 202–269), HA-tagged, expressed from pcDNA3 (peptide)
chain: TPLSALGIQDGCRVMLIGKKNSPQEEVELKKLKHLEKSVEKIADQLEELNKELTGIQQGFLPKDLQAE
modifications: also: HA tag, end not given here
As for B1, the tumor volume (22Rv.1 cells expressing the peptide (P42, P25 and P29), 9 weeks, empty vector: average 1.2 cm^3 in 4–8 weeks) was found to be 0.4 cm^3. For the same molecule, under “22Rv.1 clone P25, termination 7–9 weeks, mean and SD of 4–10 tumors, vector clones 1.24–1.73 g”, the “Tumor weight, clone P25” value worked out at 0.31 ± 0.14 g. Also, the “Tumor weight, clone P29” value (22Rv.1 clone P29, termination 9 weeks, mean and SD of 4–10 tumors, vector clones 1.24–1.73 g) is 0.42 ± 0.17 g. For the same molecule, the “Tumor weight, clone P42” value (22Rv.1 clone P42, termination 9 weeks, mean and SD of 4–10 tumors, vector clones 1.24–1.73 g) was found to be 0.38 ± 0.20 g. Under “22Rv.1 peptide clone 25, mice euthanized earlier than 9 weeks”, the tumor condition result is “the tumors were necrotic”.
